15 molecules from publication PMC5127646, “Structural basis for the recognition of spliceosomal SmN/B/B’ proteins by the RBM5 OCRE domain in splicing regulation” (eLife, 2016) can be followed below.

First the molecules themselves.
B1: RBM5 OCRE domain (451-511) Y495A (domain or fragment, human)
chain: GAMGTKYAVPDTSTYQYDESSGYYYDPTTGLYYDPNSQYYYNSLTQQALYWDGEKETYVPAAES
notes: tripeptide left by the TEV cleavage; RBM5, human, OCRE domain, residues 451-511; source: E. coli BL21, purified (Ni-NTA, TEV cleavage, gel filtration); not shown: His6, N-terminal, cleaved
B2: RBM5 OCRE domain (451-511) Y486A (domain or fragment, human)
chain: B1 chain with Y39A, A48Y
notes: as for B1
B3: RBM5 OCRE domain (451-511) Y495F (domain or fragment, human)
chain: B1 chain with A48F
notes: as for B1
B4: RBM5 OCRE domain (451-511) Y495W (domain or fragment, human)
chain: B1 chain with A48W
notes: as for B1
B5: RBM5 OCRE domain (451-511) Y454A/D458K (domain or fragment, human)
chain: B1 chain with Y7A, D11K, A48Y
notes: as for B1
B6: RBM5 OCRE domain (451-511) E501K (domain or fragment, human)
chain: B1 chain with A48Y, E54K
notes: as for B1
B7: RBM5 OCRE domain (451-511) Y488A (domain or fragment, human)
chain: B1 chain with Y41A, A48Y
notes: as for B1
B8: RBM5 OCRE domain (451-511) Y479A (domain or fragment, human)
chain: B1 chain with Y32A, A48Y
notes: as for B1
B9: RBM5 OCRE domain (451-511) Y495T (domain or fragment, human)
chain: B1 chain with A48T
notes: as for B1
B10: SmN peptide, residues 219-229 (GMRPPPPGIRG) (peptide)
peptide: GMRPPPPGIRG
notes: source: synthetic peptide (Peptide Specialty Laboratory, Heidelberg)
B11: SmN 167-240 4P/3P→4A/3A (domain or fragment)
chain: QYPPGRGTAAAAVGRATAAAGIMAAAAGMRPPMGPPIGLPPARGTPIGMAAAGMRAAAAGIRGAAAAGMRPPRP
B12: SmN 167-240 4P/3P→4G/3G (domain or fragment)
chain: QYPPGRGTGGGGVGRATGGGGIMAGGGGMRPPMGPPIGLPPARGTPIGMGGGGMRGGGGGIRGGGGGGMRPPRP
B13: SmN 167-240 4P→4A (domain or fragment)
chain: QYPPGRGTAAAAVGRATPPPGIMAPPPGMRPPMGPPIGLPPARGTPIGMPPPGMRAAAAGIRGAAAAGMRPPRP
B14: SmN residues 167-196 (domain or fragment)
chain: not shown
notes: source: E. coli BL21, purified (Ni-NTA, TEV cleavage, gel filtration); not shown: His6, N-terminal, cleaved; GST, N-terminal, cleaved
B15: RBM5 OCRE domain (residues 451-511), wild type (domain or fragment, human)
chain: B1 chain with A48Y
notes: tripeptide left by the TEV cleavage; 15N- or 13C,15N-labelled in the NMR experiments; also called RBM5_OCRE WT; source: E. coli BL21, purified (Ni-NTA, TEV cleavage, gel filtration); not shown: His6, N-terminal, cleaved

Where a chain is given by its changes, count along the chain named. In names and notes the source's numbering stands.

The term Kd denotes the free concentration of one partner at which half of the binding sites on the other are occupied at equilibrium, for simple one-to-one binding. A lower Kd goes with higher affinity.

The first assay has as its target T1, SmN C-terminal tail, residues 167-240 (complete proline-rich region), wild type (human, UniProt P63162 167-240).
T1 construct: The ITC methods print 168-240 for this construct; also called SmN_167-240 WT; source: E. coli BL21, purified (Ni-NTA, TEV cleavage, gel filtration); not shown: His6, N-terminal, cleaved; GST, N-terminal, cleaved
Put plainly: ITC; purified OCRE mutants (2 mM) titrated to wild type SmN (29.5 μM); ITC200, 24°C, 20 mM sodium phosphate pH 6.5, 50 mM NaCl; duplicates. The following applies: both partners purified.
B1 registered an equilibrium dissociation constant (Kd) of 172 µM.
B2 returned a Kd of 145 µM.
Same read-out and setting: to B3 belongs 87 µM; to B4, 35 µM.
The same measure, in the same setting: to B5 belongs 106 µM; to B6, 48 µM.
The same measure, in the same setting: next, B7: 220 µM.
B8 gave a dissociation constant (Kd) of 111 µM.
Still for that read-out and setting: to B9 belongs 186 µM.

The target of the next assay is B15. In words: NMR structure; solution structure; 2 mM ^13C,^15N-labeled OCRE with 14 mM unlabeled SmN 219-229 peptide, 298 K; 109 intermolecular NOE restraints. The following applies: both partners purified.
Regarding B10, the binding result was “binds”.

For a further assay, the target named is B15. In words: ITC; Sm tail constructs with wild type OCRE; SmN constructs (1 mM) titrated into OCRE (100 μM); ITC200, 24°C, 20 mM sodium phosphate pH 6.5, 50 mM NaCl; duplicates. The following applies: both partners purified. For orientation: In ITC the heat of successive injections is recorded.
The molecule B11 displayed a Kd of 103 µM.
In turn, B12 yielded an equilibrium dissociation constant (Kd) of 192 µM.
B13 had a Kd of 29 µM.
On the same count and under the same terms, to B14 belongs 195 µM.

A further assay addresses T1, SmN C-terminal tail, residues 167-240 …. Described as above. The following applies: both partners purified.
In turn, B15 displayed a Kd of 41 µM.

For a further assay, the target named is T2, SmB C-terminal region, residues 167-231, wild type (human, UniProt P14678-2 167-231).
T2 construct: source: E. coli BL21, purified (Ni-NTA, TEV cleavage, gel filtration); not shown: His6, N-terminal, cleaved; GST, N-terminal, cleaved
The description is as above. The following applies: both partners purified.
B15 yielded a Kd of 21 µM.
